Source: US12473372B2, “Inhibiting anti-ENPP1 antibodies” (The Regents of the University of California, priority 2020, dated 2025)

Key:
ENPP1 [1] = target: T1, ENPP1 (Homo sapiens, UniProt P22413); experiment: Flow cytometry binding of ENPP1 mAb to HEK cells over-expressing full length ENPP1; set-up: HEK cells over-expressing full length ENPP1 were incubated with varying concentrations of ENPP1 mAb; expressed in transfected cells; host or cells: HEK cells; details: compared among several clones obtained; FIG. 15
T1 sequence (P22413 1-925): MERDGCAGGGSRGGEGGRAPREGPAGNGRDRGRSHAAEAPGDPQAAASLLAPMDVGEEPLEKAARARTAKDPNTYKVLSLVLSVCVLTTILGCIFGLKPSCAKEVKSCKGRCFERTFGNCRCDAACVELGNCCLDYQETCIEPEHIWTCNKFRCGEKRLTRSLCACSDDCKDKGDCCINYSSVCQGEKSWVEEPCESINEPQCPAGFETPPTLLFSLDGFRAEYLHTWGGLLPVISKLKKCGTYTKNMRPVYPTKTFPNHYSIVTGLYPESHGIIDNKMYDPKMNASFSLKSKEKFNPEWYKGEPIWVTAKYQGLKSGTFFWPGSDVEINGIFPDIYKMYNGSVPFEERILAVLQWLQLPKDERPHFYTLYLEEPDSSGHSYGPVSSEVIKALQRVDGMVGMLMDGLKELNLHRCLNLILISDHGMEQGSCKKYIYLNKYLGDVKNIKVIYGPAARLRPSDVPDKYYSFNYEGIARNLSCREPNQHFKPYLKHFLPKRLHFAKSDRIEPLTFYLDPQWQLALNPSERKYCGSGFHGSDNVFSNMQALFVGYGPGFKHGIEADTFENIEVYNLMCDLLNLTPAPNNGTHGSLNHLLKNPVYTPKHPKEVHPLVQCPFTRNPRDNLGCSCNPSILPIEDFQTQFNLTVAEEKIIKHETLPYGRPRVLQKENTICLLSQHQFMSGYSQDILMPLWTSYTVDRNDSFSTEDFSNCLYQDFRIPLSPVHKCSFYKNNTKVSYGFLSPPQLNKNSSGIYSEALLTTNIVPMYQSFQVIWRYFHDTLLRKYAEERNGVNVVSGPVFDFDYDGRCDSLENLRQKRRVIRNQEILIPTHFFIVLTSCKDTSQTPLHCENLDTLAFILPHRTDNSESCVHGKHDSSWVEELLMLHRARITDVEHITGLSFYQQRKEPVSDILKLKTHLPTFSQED
Procedure: FIG. 15 is an exemplary affinity binding curve of ENPP1 monoclonal antibody (mAb) targeting human ENPP1. HEK cells over-expressing full length ENPP1 were incubated with varying concentrations of ENPP1 mAb followed by flow cytometry to determine mean fluorescence intensity as a readout for binding. […] IgG at an identical concentration is used as a control.

murine ENPP1 = target: T2, murine ENPP1 (Mus musculus, UniProt P06802); experiment: Cross reactivity of the antibody with murine ENPP1; type: binding; details: antibody raised against human recombinant protein
T2 sequence (P06802 1-906): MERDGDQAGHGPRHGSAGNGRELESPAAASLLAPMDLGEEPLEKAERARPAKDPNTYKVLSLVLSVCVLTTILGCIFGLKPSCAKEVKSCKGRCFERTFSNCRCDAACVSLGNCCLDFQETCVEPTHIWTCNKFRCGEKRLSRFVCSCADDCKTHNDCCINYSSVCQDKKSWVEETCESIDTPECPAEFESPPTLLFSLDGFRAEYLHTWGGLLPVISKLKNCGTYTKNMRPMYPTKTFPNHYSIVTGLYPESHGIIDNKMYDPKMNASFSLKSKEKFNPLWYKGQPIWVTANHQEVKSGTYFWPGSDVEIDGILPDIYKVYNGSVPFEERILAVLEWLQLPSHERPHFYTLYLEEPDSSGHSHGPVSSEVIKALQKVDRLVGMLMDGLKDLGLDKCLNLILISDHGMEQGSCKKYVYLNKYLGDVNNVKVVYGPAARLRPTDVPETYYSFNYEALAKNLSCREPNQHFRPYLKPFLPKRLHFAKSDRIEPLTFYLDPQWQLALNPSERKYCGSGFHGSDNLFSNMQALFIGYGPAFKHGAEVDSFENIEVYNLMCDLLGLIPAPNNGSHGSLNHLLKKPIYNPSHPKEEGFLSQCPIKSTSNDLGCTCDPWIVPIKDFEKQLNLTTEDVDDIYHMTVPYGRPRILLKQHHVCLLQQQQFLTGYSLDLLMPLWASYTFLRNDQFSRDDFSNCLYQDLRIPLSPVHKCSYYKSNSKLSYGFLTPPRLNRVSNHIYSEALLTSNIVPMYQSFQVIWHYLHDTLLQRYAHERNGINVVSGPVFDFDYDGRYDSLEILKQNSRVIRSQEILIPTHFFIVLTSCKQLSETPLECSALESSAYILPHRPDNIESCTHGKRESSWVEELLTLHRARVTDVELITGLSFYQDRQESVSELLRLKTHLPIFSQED
Text: The antibody was generated in collaboration with Lake Pharma using standard techniques of monoclonal antibody (mAb) generation, including immunization, collection and testing of hybridoma supernatants, cloning of hybridomas and further confirmation by multiple affinity assays followed by selection and production of the ENPP1mAb in a recombinant manner. […] The selected hybridoma has been sequenced and the recombinant monoclonal is produced on a CHO cell line with characterization by electropherogram and mass spectrometry. The molecular weight of the heavy chain is approximately 48 kD and the light chain 24 kD.

[2] = test system: ENPP1 mediated cell death of cardiac fibroblasts; experiment: Co-culture of cardiac fibroblasts and cardiomyocytes with recombinant ENPP1 and ATP, cell death; type: cell-based; details: for cell death and detachment of cardiac fibroblasts: images after 48 hours, versus IgG control, FIG. 18A
Procedure: FIG. 18A are exemplary micrographs showing ENPP1 mAb inhibits ENPP1 mediated cell death. Cardiac fibroblasts (green) were co-cultured with cardiomyocytes (red) followed by the addition of vehicle (panel A) or recombinant ENPP1 and ATP and IgG (panel B) or recombinant ENPP1 and ATP and 12-J-4 ENPP1mAb (panel C). Images were taken after 48 hours and show cell death and detachment of cardiac fibroblasts in the IgG control well (panel B).
FIG. 18B is an exemplary graph showing results of flow cytometry measuring cell death (PI+) from the assay performed in FIG. 18A.
Next, functional data was collected for the ENPP1 mAb using an in vitro functional assay. As shown in the previous examples, ENPP1 expression induced cardiomyocytes to release pro-inflammatory and pro-apoptotic molecules that induce cell death in a host of cell types in the injury region. To test the ENPP1 mAb, an in vitro functional assay was performed in which cardiac fibroblasts were incubated with cardiomyocytes followed by the addition of a vehicle, recombinant ENPP1 and ATP and IgG, or recombinant ENPP1 and ATP and 12-J-4 ENPP1mAb.

ENPP1 [3] = target: T1, ENPP1; experiment: Luciferase based ATP assay of ENPP1 inhibition; type: biochemical; details: FIG. 17
Procedure: FIG. 17 is an exemplary graph showing the effect of monoclonal Ab 12-J-4 in inhibiting ENPP1. In a luciferase based assay, ATP was incubated with luciferase in the presence or absence of ENPP1+/−the mAb or IgG control. In the absence of ENPP1, high luminescence signal is obtained.

B1: 12-J-4: Anti-ENPP1 monoclonal antibody, IgG1kappa, made recombinantly in CHO cells; CDRs SEQ ID NO: 1-6, VH SEQ ID NO: 7, VL SEQ ID NO: 9 (antibody, V domains shown)
VH: EVMLVESGGGLVKPGGSLKLSCVASGFTFSSYTMSWVRQTPEKRLEWVATISGGGGNTYYPDSVKGRFTISRDNAKNTLYLQMSSLRSEDTALYYCARRHYGSSPYAMDYWGQGTSVTVSS
VL: DIQMTQTTSSLSASLGDRVTISCRASQDISNYLNWYQQKPDGTVKLLIYHKTRLHSGVPSRFSGSGSGTDYSLTISNLEQEDIATYFCQQGNMLPWTFGGGTKLEIK
modifications: IgG1 kappa constant regions
- binding and inhibitory effects on ENPP1 activity (ENPP1 [1]): most potent
- cross reactivity with murine ENPP1 (murine ENPP1): significant cross reactivity
- PI+ cells (cell death) by flow cytometry ([2]; FIG. 18B): significant reduction
- cell death and detachment of cardiac fibroblasts [2]: significantly abrogated cell death
- cell death and detachment of cardiac fibroblasts ([2]; listed as ENPP1mAb): significantly diminished
- luminescence signal when ENPP1 is added (ENPP1 [3]; ATP incubated with luciferase and ENPP1, compared to IgG): significantly higher
- inhibition of ENPP1 (ENPP1 [3]; at nanomolar concentrations): potently inhibits
